Experimental data from US20260266833A1 (AXOIYA, published 2026).
Non-standard residues stand in square brackets, D forms with d. No end group written: not given here. *: point of attachment. Biotin = O=C1N[C@H]2[C@H](CS[C@H]2CCCCC(=O)*)N1; Arg(Me) = CNC(=N)NCCC[C@H](N)C(=O)O; Ahx = NCCCCCC(=O)O

T1: H3K14
T1 construct: also called H3K14 peptide (non-modified)
T1 peptide: {Biotin-Ahx}-TARKSTGGKAPRKQLAT

T2: H3R17me1
T2 construct: also called H3R17me1 peptide
T2 peptide: {Biotin-Ahx}-KSTGGKAP[Arg(Me)]KQLATKAA

T3: H3R17
T3 construct: also called H3R17 peptide (non-modified)
T3 peptide: {Biotin-Ahx}-KSTGGKAPRKQLATKAA

T4: H3K27me3 peptide (Kme3 (trimethyl-lysine) at the 10th residue (KQLATKAARKme3SAPATGGVK); N-terminus biotin + aminohexanoic acid linker, or FITC at the N-terminus for fluorescence polarization)
T4 construct: Synthetic peptide (GenScript); One entry is used for the biotinylated and the FITC-labelled form
T4 peptide: KQLATKAARKSAPATGGVK

T5: H3K14Ac
T5 construct: also called H3K14Ac peptide
T5 peptide: {Biotin-Ahx}-TARKSTGGK(Ac)APRKQLAT


Tests used:
H4K20 peptide [1] = biological target: T6, H4K20 peptide (N-terminus biotin + aminohexanoic acid linker); experiment: luciferase-fusion assay on immobilized peptide, fusion at 100 nM, normalized to H3K9me3
Method: (§1) For luciferase-based assays, 384-well white plates (PerkinElmer) were coated for 16 h at 4° C. with 4 μg/ml streptavidin (New England Biolabs, N7021S) in TBS pH 8.5 (50 mM Tris-HCl pH 8.5, 150 mM NaCl). Each well was blocked with 60 μl/well of TBS pH 8.5 containing 0.5% BSA (TB buffer) and incubated at 25° C. for 1 h. Plates were washed four times with 90 μl/well of PBS pH 7.4, 0.05% Tween-20 (PT buffer) and incubated with 25 μl/well of biotinylated histone peptides at 5 μg/ml in TB buffer pH 8.5 for 30 min at 25° C. Plates were washed and incubated with Cbx chromodomain-luciferase fusions diluted to 0.1 nM for Cbx. VD or 100 nM for Cbx.wt in TB buffer, 0.05% Tween-20, 1 mM DTT, 5% glycerol (TBT buffer). Plates were incubated for 1 h at 25° C. with gentle shaking, washed six times and luminescence intensity was measured with a Biotek Synergy 5 plate reader (Biotek) using the ONE-Glo™ EX luciferase assay system reagent (Promega). Following background subtraction of the luminescence signal derived from wells coated with streptavidin, the luminescence intensity was normalized to wells with immobilized H3K9me3 peptide.
(§2) To enhance detection sensitivity, each chromodomain was expressed as a fusion to the N-terminus of an engineered firefly luciferase and binding was measured by luminescence intensity.

H4K20me3 [2] = biological target: T7, H4K20me3 (Kme3 at peptide residue 8 (histone H4 K20); N-terminal biotin and aminohexanoic acid linker); experiment: as above
T7 construct: also called H4K20Me3 peptide
Method: as §1, §2

H3K14 [3] = biological target: T1, H3K14; experiment: luciferase-fusion assay on immobilized peptide
Method: as §1, §2

H3R17me1 = biological target: T2, H3R17me1; experiment: luciferase-fusion assay on immobilized peptide
Method: as §1, §2

H3R17 = biological target: T3, H3R17; experiment: luciferase-fusion assay on immobilized peptide
Method: as §1, §2

H4K20 peptide [4] = biological target: T6, H4K20 peptide; experiment: luciferase-fusion assay on immobilized peptide, fusion at 0.1 nM, normalized to H3K9me3
Method: as §1, §2

H4K20me3 [5] = biological target: T7, H4K20me3; experiment: as above
Method: as §1, §2

H4K20 peptide [6] = biological target: T6, H4K20 peptide; experiment: luciferase-fusion assay on immobilized peptide
Method: as §1, §2

H4K20me3 [7] = biological target: T7, H4K20me3; experiment: luciferase-fusion assay on immobilized peptide
Method: as §1, §2

H3K27me3 peptide [8] = biological target: T4, H3K27me3 peptide; experiment: fluorescence polarization, FITC-peptide 0.5 nM
Method: (§4) Fluorescence polarization (FP) assays were performed in a 20 μl volume at a constant histone peptide concentration of 0.5 nM. Binding measurements were performed in FP buffer (25 mM HEPES pH 7.5, 150 mM NaCl, 1 mM DTT, 0.01% TritonX-100) by mixing in a 384-well black plate (Corning) 0.5 nM FITC-labeled histone peptides with serial dilutions of wild-type Cbx chromodomains ranging from 200-0.2 μM. For affinity determination of Cbx7.V1 and all Cbx. VDs, chromodomains were serially diluted from 50 μM to 50 nM. Samples were incubated for 30 min at 25° C. prior to data acquisition. […] Dissociation constants were determined using Prismv.9.3 (GraphPad Software Inc) with a one-site total binding model.
FP assays was used to measure the affinities of each wild-type Cbx chromodomain (Cbx.wt) and its Cbx. VD version for the H3K9me3 and H3K27me3 peptides (Table 13).

H3K14 [9] = biological target: T1, H3K14; experiment: phage ELISA, specificity heatmap
Method: (§3) Phage ELISA experiments were performed by coating 384-well MAXISORP plates (Thermo Fisher Scientific) with 25 μl/well of 2 μg/ml streptavidin (New England Biolabs, N7021S) in PBS pH 7.4, and incubating them at 4° C. for 16 h. Each well was blocked with 60 μl/well of PBS pH 7.4 containing 0.5% BSA (PB buffer) and incubated at 25° C. for 1 h. Plates were washed four times with 90 μl/well of PBS pH 7.4 containing 0.05% Tween-20 (PT buffer) and incubated with 25 μl/well of biotinylated histone peptides at 2 μg/ml in PBS pH 7.4 for 30 min at 25° C. Plates were incubated with phage stocks previously diluted three-fold in PB buffer containing 0.05% Tween-20 (PBT buffer) at 25° C. for 1 h with gentle agitation. Plates were washed and bound phage was detected using 25 μl/well of an anti-M13-HRP-conjugated antibody (1:3,000 dilution in PT buffer; SinoBiological, 11973-MM05T-H). Following incubation at 25° C. for 30 min with gentle shaking, plates were washed, and binding was assessed by adding 25 μl/well of the 3,3′,5,5′-tetramethylbenzidine (TMB) (Thermo Fisher) chromogenic substrate. Plates were incubated with TMB at 25° C. with gentle shaking for 5-10 min, and the colorimetric reaction was stopped by addition of 25 μl/well of a IM H3PO4 solution. Plates were read spectrophotometrically at 450 nm using a PowerWave XS microplate reader (BioTek).

H4K20 peptide [10] = biological target: T6, H4K20 peptide; experiment: phage ELISA, specificity heatmap
Method: as §3

H3K14Ac = biological target: T5, H3K14Ac; experiment: phage ELISA, specificity heatmap
Method: as §3

H4K20me3 [11] = biological target: T7, H4K20me3; experiment: phage ELISA, specificity heatmap
Method: as §3

H3K27me3 peptide [12] = biological target: T4, H3K27me3 peptide; experiment: fluorescence polarization, FITC-peptide 0.5 nM
Method: as §4

H3K27me3 peptide [13] = biological target: T4, H3K27me3 peptide; experiment: BLI, biotinylated peptide on streptavidin tips, steady state
Method: BLI experiments were performed on an Octet HTX system (ForteBio) using biosensor tips coated with streptavidin to immobilize biotinylated H3K9me3 and H3K27me3 peptides. Binding analysis was performed by analyzing the association of biosensor-immobilized methylated peptides to Cbx7.V1 variants in solution at 5 or 1 μM. Binding assays were performed at 25° C. in BLI reaction buffer (25 mM HEPES pH 7.0, 150 mM NaCl, 1 mg/ml BSA, 0.01% Tween-20). Dissociation constants (KD) were obtained by fitting the response wavelength shifts in the steady-state regions with the Langmuir binding model.

Binder	binding result (H3K14 [9])	binding result (H4K20 peptide [10])	binding result (H3K14Ac)	binding result (H4K20me3 [11])	Kd (H3K27me3 peptide [13])	further results
Cbx7.wt chromodomain-luciferase fusion (other, not shown: engineered YY5 firefly luciferase from Photinus pyralis fused to the C-terminus) MSYYHHHHHHGSDYKDDDDKSSGENLYFQGSGGSSAIGEQVFAVESIRKKRVRKGKVEYLVKWKGWPPKYSTWEPEEHILDPRLVMAYEEKEERDRASGYRKRGPK	–	–	–	–	–	binding result (H4K20 peptide [1]): binds; binding result (H4K20me3 [2]): binds
Cbx7.VD chromodomain-luciferase fusion (designed binder, not shown: engineered YY5 firefly luciferase from Photinus pyralis fused to the C-terminus) MSYYHHHHHHGSDYKDDDDKSSGENLYFQGSGGSSAIGEDVFAVESIRKKRVRKGKVEYLVKWEGWPPKYSTWEPEEHILDPRLVMAYEEKEERDRASGYRKRGPK	–	–	–	–	–	binding result (H3K14 [3]): no binding (tested: 0.1 nM); binding result (H3R17me1): no binding (tested: 0.1 nM); binding result (H3R17): no binding (tested: 0.1 nM); binding result (H4K20 peptide [4]): binds; binding result (H4K20me3 [5]): binds
Cbx8.VD chromodomain-luciferase fusion (designed binder, not shown: engineered YY5 firefly luciferase from Photinus pyralis fused to the C-terminus) MSYYHHHHHHGSDYKDDDDKSSGENLYFQGSGGSGEDVFAAEALLKRRIRKGRMEYLVKWEGWSQKYSTWEPEENILDARLLAAFEEREREMELYGP	–	–	–	–	–	binding result (H3K14 [3]): no binding (tested: 0.1 nM); binding result (H3R17): no binding (tested: 0.1 nM); binding result (H4K20 peptide [6]): no binding (tested: 0.1 nM); binding result (H4K20me3 [7]): no binding (tested: 0.1 nM)
Cbx2.VD chromodomain (tags removed) (designed binder) GEDVFAAECILSKRLRKGKLEYLVKWEGWSSKHNSWEPEENILDPRLLLAFQKKEHEKEVQNR	–	–	–	–	–	Kd (H3K27me3 peptide [8]): 3000 nM
Cbx2.VD chromodomain-luciferase fusion (designed binder, not shown: engineered YY5 firefly luciferase from Photinus pyralis fused to the C-terminus) MSYYHHHHHHGSDYKDDDDKSSGENLYFQGSGGSGEDVFAAECILSKRLRKGKLEYLVKWEGWSSKHNSWEPEENILDPRLLLAFQKKEHEKEVQNR	–	–	–	–	–	binding result (H3K14 [3]): no binding (tested: 0.1 nM); binding result (H3R17me1): no binding (tested: 0.1 nM); binding result (H3R17): no binding (tested: 0.1 nM); binding result (H4K20 peptide [6]): no binding (tested: 0.1 nM); binding result (H4K20me3 [7]): no binding (tested: 0.1 nM)
phage-displayed Cbx7.V4 (designed binder) SAICDNVFAVESIRKKRVRKGKVEYLVKWEGWPQEYSTWEPEEHILDPRLVMAYEEKEERDRASGYRKRGPK	no binding	no binding	no binding	no binding	–	–
Cbx7.VD chromodomain (tags removed) (designed binder, also called Cbx7 Q9D/K33E) SAIGEDVFAVESIRKKRVRKGKVEYLVKWEGWPPKYSTWEPEEHILDPRLVMAYEEKEERDRASGYRKRGPK	–	–	–	–	–	Kd (H3K27me3 peptide [8]): 5000 nM; Kd (H3K27me3 peptide [12]): 5000 nM
phage-displayed Cbx7.V6 (designed binder) SAIFEDVFPVESIRKKRVRKGKVEYLVKWKGWPSEYSTWEPEEHILDPRLVMAYEEKEERDRASGYRKRGPK	no binding	no binding	no binding	no binding	–	–
Cbx7.V1 back-mutant I10V, His6- and Flag-tagged (designed binder, not shown: small tags and cut ends) SAIGDDVFAVESIRKKRVRKGKVEYLVKWEGWPLEYSTWEPEEHILDPRLVMAYEEKEERDRASGYRKRGPK	–	–	–	–	2000 nM	–
phage-displayed Cbx7.V1 (designed binder) SAIGDDIFAVESIRKKRVRKGKVEYLVKWEGWPLEYSTWEPEEHILDPRLVMAYEEKEERDRASGYRKRGPK	no binding	no binding	no binding	no binding	–	–
phage-displayed Cbx7.V2 (designed binder) SAICDNVYPVESIRKKRVRKGKVEYLVKWKGWPLEYSTWEPEEHILDPRLVMAYEEKEERDRASGYRKRGPK	no binding	no binding	no binding	no binding	–	–
Cbx7.V1 back-mutant D9Q, His6- and Flag-tagged (designed binder, not shown: small tags and cut ends) SAIGDQIFAVESIRKKRVRKGKVEYLVKWEGWPLEYSTWEPEEHILDPRLVMAYEEKEERDRASGYRKRGPK	–	–	–	–	2000 nM	–
phage-displayed Cbx7.V3 (designed binder) SAICEYIFSVESIRKKRVRKGKVEYLVKWEGWPPEYMTWEPEEHILDPRLVMAYEEKEERDRASGYRKRGPK	no binding	no binding	no binding	no binding	–	–
Cbx7.V1 back-mutant L37P, His6- and Flag-tagged (designed binder, not shown: small tags and cut ends) SAIGDDIFAVESIRKKRVRKGKVEYLVKWEGWPPEYSTWEPEEHILDPRLVMAYEEKEERDRASGYRKRGPK	–	–	–	–	2500 nM	–
Cbx7 K33E chromodomain (tags removed) (designed binder, FP: His6 and Flag tags removed with TEV protease) SAIGEQVFAVESIRKKRVRKGKVEYLVKWEGWPPKYSTWEPEEHILDPRLVMAYEEKEERDRASGYRKRGPK	–	–	–	–	–	Kd (H3K27me3 peptide [12]): 20000 nM
phage-displayed Cbx7.V5 (designed binder) SAIGHDVFPVESIRKKRVRKGKVEYLVKWRDWPEQYSTWEPEEHILDPRLVMAYEEKEERDRASGYRKRGPK	no binding	no binding	no binding	no binding	–	–
Cbx7.V1 chromodomain, His6- and Flag-tagged (designed binder, not shown: small tags and cut ends, BLI form; tags are said to be removed only for FP and ITC) SAIGDDIFAVESIRKKRVRKGKVEYLVKWEGWPLEYSTWEPEEHILDPRLVMAYEEKEERDRASGYRKRGPK	–	–	–	–	2000 nM	–
Cbx7.V1 back-mutant E38K, His6- and Flag-tagged (designed binder, not shown: small tags and cut ends) SAIGDDIFAVESIRKKRVRKGKVEYLVKWEGWPLKYSTWEPEEHILDPRLVMAYEEKEERDRASGYRKRGPK	–	–	–	–	1500 nM	–
Cbx7.V1 back-mutant D8E, His6- and Flag-tagged (designed binder, not shown: small tags and cut ends) SAIGEDIFAVESIRKKRVRKGKVEYLVKWEGWPLEYSTWEPEEHILDPRLVMAYEEKEERDRASGYRKRGPK	–	–	–	–	2000 nM	–
Cbx7 Q9D chromodomain (tags removed) (designed binder, FP: His6 and Flag tags removed with TEV protease) SAIGEDVFAVESIRKKRVRKGKVEYLVKWKGWPPKYSTWEPEEHILDPRLVMAYEEKEERDRASGYRKRGPK	–	–	–	–	–	Kd (H3K27me3 peptide [12]): 100000 nM
